In the supplement of paper PMC9170038:

Tested on: MS2 coat protein
Test: apparent KD of MS2 coat protein; higher = weaker reporter binding
Details: Eterna round: R107
Summary of the method: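 Designed RNA switches, transcribed on-chip from Illumina sequencing clusters, were titrated with SNAP-549-labelled MS2 coat protein from 0.7 or 1.5 nM to 3 µM in twofold steps. The solution was 100 mM Tris-HCl pH 7.5, 80 mM KCl, 4 mM MgCl2, with constant ligand or without it. Apparent KD is the median over each design's normalised cluster binding-curve fits.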

[1] = input ligand: theophylline 20 uM
[2] = input ligand: theophylline 2 mM
[3] = input ligand: tryptophan 2.4 mM

## GUUAUAGACGGAAGGAGCGCGGCCACAUGAGGAUCACCCAUGUAUUGUGUUGGUAAUAGGUCGCAGGUAGGUCGCCGAUUAAUGA [Same State - Arginine B / A]
Input ligand: arginine 13.2 mM
  apparent KD of MS2 coat protein: 35.9 nM
Input ligand: none
  apparent KD of MS2 coat protein: 55.1 nM
[1]
  apparent KD of MS2 coat protein: 61.7 nM
[2]
  apparent KD of MS2 coat protein: 47.5 nM
[3]
  apparent KD of MS2 coat protein: 34 nM

## GUUAUAUCAAAAGAUGUAACAGUGGGUGAACGAGGACCGGUACGGCCGCCACUCGGACAUGAGGAUCACCCAUGUCCAUGUGAAA [AstrosExyTryA#14]
Input ligand: arginine 13.2 mM
  apparent KD of MS2 coat protein: 15.8 nM
[1]
  apparent KD of MS2 coat protein: 17.5 nM
[2]
  apparent KD of MS2 coat protein: 18.7 nM

## UAAACUACACAUGAGGAUCACCCAUGUGGCCGAGGACCGGUACGGCCGCCACUCGUGUGUUAAUAAAAGAACUGCAAGGUUCUGU [Laorat]
Input ligand: arginine 13.2 mM
  apparent KD of MS2 coat protein: 68.7 nM
[1]
  apparent KD of MS2 coat protein: 419 nM
[2]
  apparent KD of MS2 coat protein: 552 nM

## UAAAUAUUACUGGGUAAGGUAUAAAUAGAUACCAGCCAGAUAACUGGCCCUUGGCAGCUAAACAUGAGGAUCACCCAUGUAUAAU [TheoAS 20 #OpenEnded #Ms2Late]
Input ligand: arginine 13.2 mM
  apparent KD of MS2 coat protein: 23.5 nM
[1]
  apparent KD of MS2 coat protein: 44 nM
[3]
  apparent KD of MS2 coat protein: 33.2 nM

## UAACAUGAGGAUCACCCAUGUUUGAAGGAACGAGGACCGGUACGGCCGCCACUCGACGAGUGGAUGAGAAGUGGGAUUGUGUGCU [Same State Trp A GF8]
Input ligand: arginine 13.2 mM
  apparent KD of MS2 coat protein: 14.4 nM
Input ligand: none
  apparent KD of MS2 coat protein: 13 nM
[1]
  apparent KD of MS2 coat protein: 17.5 nM
[2]
  apparent KD of MS2 coat protein: 17.3 nM
[3]
  apparent KD of MS2 coat protein: 15.2 nM

## UAAUCAGUGCCGGUUCUCGGAUCCUCAUGUCGAGGACCGGUACGGCCGCCACUCGGAACAUGAGGAUCACCCAUGUAAUAAUAAU [#10 Exclusion Tryptophan A]
Input ligand: arginine 13.2 mM
  apparent KD of MS2 coat protein: 40.7 nM
[1]
  apparent KD of MS2 coat protein: 101 nM
[2]
  apparent KD of MS2 coat protein: 162 nM

## UAAUGCAGGUCGGCCGCCACUACACACAUGAGGAUCACCCAUGUAGUUACUGGGUGAAGUGGCAGUAGGACCGGGACCUGCAUAA [Brourd01]
Input ligand: arginine 13.2 mM
  apparent KD of MS2 coat protein: 185 nM
[1]
  apparent KD of MS2 coat protein: 467 nM
[2]
  apparent KD of MS2 coat protein: 873 nM

## UACAUGAGGAUCACCCAUGUAUAACCGGUACGAGGACCGGUACGGCCGCCACUCGAAACAUGAGGAUCACCCAUGUGCUACUAUU [Same State Trypophan A GF 22]
Input ligand: arginine 13.2 mM
  apparent KD of MS2 coat protein: 25.3 nM
[1]
  apparent KD of MS2 coat protein: 36.4 nM
[2]
  apparent KD of MS2 coat protein: 35.1 nM

## UACAUGAGGAUCACCCAUGUAUACAUGGAUACCAGCGACAAUGGGCGCCCUUGGCAGCUAGUGGAUGGAGGGUGGCCACAGUACU [Exclusion Theophyline A GF5]
Input ligand: arginine 13.2 mM
  apparent KD of MS2 coat protein: 25.5 nM
[1]
  apparent KD of MS2 coat protein: 53.1 nM
[3]
  apparent KD of MS2 coat protein: 42.7 nM

## UACAUGAGGAUCACCCAUGUAUUGCCGGUACGAGGACCGGUACGGCCGCCACUCGGGACAUGAGGAUCACCCAUGUGCUGCUAUU [Same State Trypophan A GF 23]
Input ligand: arginine 13.2 mM
  apparent KD of MS2 coat protein: 28.7 nM
Input ligand: none
  apparent KD of MS2 coat protein: 44.4 nM
[1]
  apparent KD of MS2 coat protein: 49.8 nM
[2]
  apparent KD of MS2 coat protein: 42.4 nM
[3]
  apparent KD of MS2 coat protein: 45.8 nM

## UAUAUAUAGGCGGCCGCCACUGAUUUUCAUAUAUAUAUAACAUGAGGAUCACCCAUGUAGAUAUACAGGACCGGGCCUAUAUAUA [aaaA]
Input ligand: arginine 13.2 mM
  apparent KD of MS2 coat protein: 17 nM
Input ligand: none
  apparent KD of MS2 coat protein: 16.1 nM
[1]
  apparent KD of MS2 coat protein: 16.5 nM
[2]
  apparent KD of MS2 coat protein: 14.7 nM
[3]
  apparent KD of MS2 coat protein: 13.3 nM

## UAUCCACAUGAGGAUCACCCAUGUAGGGAAGGAGCGGUGAUUUCACCAGGUAGGUCGCCUUACUGAGGAGAACCGGUGGAAUCGU [Exclusion - Arginine A (Freestyle 30)]
Input ligand: arginine 13.2 mM
  apparent KD of MS2 coat protein: 45.5 nM
Input ligand: none
  apparent KD of MS2 coat protein: 25.9 nM
[1]
  apparent KD of MS2 coat protein: 40.6 nM
[2]
  apparent KD of MS2 coat protein: 75.9 nM
[3]
  apparent KD of MS2 coat protein: 19.8 nM

## UCAGUGCAAGGAAGGAGCGGGUACAUGAGGAUCACCCAUGUGCAAGUGGUGAGCGUUUGUGCCCAGGUAGGUCGCCUAGCCUGGU [XArg-B18]
Input ligand: arginine 13.2 mM
  apparent KD of MS2 coat protein: 507 nM
Input ligand: none
  apparent KD of MS2 coat protein: 125 nM
[1]
  apparent KD of MS2 coat protein: 172 nM
[2]
  apparent KD of MS2 coat protein: 179 nM
[3]
  apparent KD of MS2 coat protein: 159 nM

## UCAUGCAGGUCGGCCGCCACUACACACAUGAGGAUCACCCAUGUAGUUACUGGGUGAAGUGGCAGUAGGACCGGGACCUGCACAC [Brourdmod17]
Input ligand: arginine 13.2 mM
  apparent KD of MS2 coat protein: 155 nM
Input ligand: none
  apparent KD of MS2 coat protein: 504 nM
[1]
  apparent KD of MS2 coat protein: 632 nM
[2]
  apparent KD of MS2 coat protein: 849 nM
[3]
  apparent KD of MS2 coat protein: 1090 nM

## UCCACAUGAGGAUCACCCAUGUGCCAUGAUACCAGACAUGAAAAUGUCCCUUGGCAGCAUGAGUGAGGCAUCCGAAAGGAUGCCU [Chrlice]
Input ligand: arginine 13.2 mM
  apparent KD of MS2 coat protein: 149 nM
Input ligand: none
  apparent KD of MS2 coat protein: 157 nM
[1]
  apparent KD of MS2 coat protein: 260 nM
[2]
  apparent KD of MS2 coat protein: 38.3 nM
[3]
  apparent KD of MS2 coat protein: 409 nM

## UCCUCCUCCGCAAGGAGGAGGAGUUGCGAUACCAGCACGGUAACGUGCCCUUGGCAGCGCACAUGAGGAUCACCCAUGUCAUGUU [#1 Exclusion - Theophylline A Attempt #11 (HarryS)]
Input ligand: arginine 13.2 mM
  apparent KD of MS2 coat protein: 15 nM
[1]
  apparent KD of MS2 coat protein: 24.5 nM
[3]
  apparent KD of MS2 coat protein: 17.1 nM

## UCCUCCUCCGCAAGGAGGAGGAGUUGCGAUACCAGCCCGGAAACGGGCCCUUGGCAGCGCACAUGAGGAUCACCCAUGUCAUGUU [#1 Exclusion - Theophylline A Attempt #8 (HarryS)]
Input ligand: arginine 13.2 mM
  apparent KD of MS2 coat protein: 14.6 nM
Input ligand: none
  apparent KD of MS2 coat protein: 18.1 nM
[1]
  apparent KD of MS2 coat protein: 19.8 nM
[2]
  apparent KD of MS2 coat protein: 30.6 nM
[3]
  apparent KD of MS2 coat protein: 18 nM

## UCCUUAGAUACUGAUACCAGACUACAGUAAACAUGAGGAUCACCCAUGUUUGAUCACUAAGUCCCUUGGCAGCAGGUACAUGGGA [Theo B SS r1]
Input ligand: arginine 13.2 mM
  apparent KD of MS2 coat protein: 12.6 nM
[1]
  apparent KD of MS2 coat protein: 12.9 nM
[3]
  apparent KD of MS2 coat protein: 11.9 nM

## UCGCAUUGCUGCGAUACCAGACAUGAGGAUCACCCAUGUACCAAGAAAACGUACAUAAAUGUCCCUUGGCAGCGCAGCAAUGCGU [MAT - Exclusion Theophlline B - Mod of Eli - D26]
Input ligand: arginine 13.2 mM
  apparent KD of MS2 coat protein: 148 nM
[1]
  apparent KD of MS2 coat protein: 656 nM
[3]
  apparent KD of MS2 coat protein: 631 nM

## UCGCCCAGAAAGGAUUGCUGGGAUAUGGAAGGAGCGCUGAUGCCAGCAGGUAGGUCGCCAACGGACAUGAGGAUCACCCAUGUAC [Same State - Arginine A (Freestyle 6)]
Input ligand: arginine 13.2 mM
  apparent KD of MS2 coat protein: 16.7 nM
Input ligand: none
  apparent KD of MS2 coat protein: 19.8 nM
[1]
  apparent KD of MS2 coat protein: 28.7 nM
[2]
  apparent KD of MS2 coat protein: 21.1 nM
[3]
  apparent KD of MS2 coat protein: 20.9 nM

## UCGCCCAGGUAGGCUUAAUGGGAUAUGGAAGGAGCGCUGAUGCCAGCAGGUAGGUCGCCAACGGACAUGAGGAUCACCCAUGUAC [Same State - Arginine A (Freestyle 4)]
Input ligand: arginine 13.2 mM
  apparent KD of MS2 coat protein: 24.7 nM
Input ligand: none
  apparent KD of MS2 coat protein: 18 nM
[1]
  apparent KD of MS2 coat protein: 34.6 nM
[2]
  apparent KD of MS2 coat protein: 27.1 nM
[3]
  apparent KD of MS2 coat protein: 22.7 nM

## UCGGGCCUUCUUUCUUGGCCCGUUACAGAAGGAGCGUCGGAAAUGACAGGUAGGUCGCUGAGAACAUGAGGAUCACCCAUGUAUU [SSAA #14]
Input ligand: arginine 13.2 mM
  apparent KD of MS2 coat protein: 16.8 nM
Input ligand: none
  apparent KD of MS2 coat protein: 26.4 nM
[1]
  apparent KD of MS2 coat protein: 28.9 nM
[2]
  apparent KD of MS2 coat protein: 25.1 nM
[3]
  apparent KD of MS2 coat protein: 22.1 nM

## UCGUGAGUUUCGGAUACCAGUGUUGUCGAUACAUGAGGAUCACCCAUGUUAGAGGAUGUACACCCUUGGCAGCCGGCUGUGGCGG [lplmullin]
Input ligand: arginine 13.2 mM
  apparent KD of MS2 coat protein: 15.8 nM
[1]
  apparent KD of MS2 coat protein: 16.1 nM
[3]
  apparent KD of MS2 coat protein: 17.3 nM

## UGACAUUGCUCAGAUACCAGACAUGAGCAUCAGCCAUGUACCGAGAGUACAUGUUAAAGUGUCCCUUGGCAGCUGAGCAAUGUCU [Mod of Eli's TheoBX5 #AlternateMS2 v4]
Input ligand: arginine 13.2 mM
  apparent KD of MS2 coat protein: 116 nM
Input ligand: none
  apparent KD of MS2 coat protein: 328 nM
[1]
  apparent KD of MS2 coat protein: 640 nM
[2]
  apparent KD of MS2 coat protein: 371 nM
[3]
  apparent KD of MS2 coat protein: 404 nM

## UGACAUUGCUGCGAUACCAGACAUGAGGAUCACCCAUGUACCAAGGUACCCGAAAGGAAUGUCCCUUGGCAGCGCAGCAAUGUCU [MAT - Exclusion Theophlline B - Mod of Eli - D18]
Input ligand: arginine 13.2 mM
  apparent KD of MS2 coat protein: 10.6 nM
[1]
  apparent KD of MS2 coat protein: 11.6 nM
[3]
  apparent KD of MS2 coat protein: 9.73 nM

## UGAUACCAGUCGGCCGCCACUAUGCUAGAUACUAGCAAUAAAGGGCGACAUGAGGAUCACCCAUGUAGGACCGGGACUGGUAUCU
[1]
  apparent KD of MS2 coat protein: 14.1 nM
[2]
  apparent KD of MS2 coat protein: 12 nM

## UGCACCAUAAUCAUGUUGGUGCUAGGUGAUACCAGCAUCGAAAGAUGCCCUUGGCAGCACCAACAUGAGGAUCACCCAUGUAAUA [(MT)''-(M)'-(T')-(Theo)-(Ms2)_Design1/22_3]
Input ligand: arginine 13.2 mM
  apparent KD of MS2 coat protein: 60.1 nM
[1]
  apparent KD of MS2 coat protein: 351 nM
[3]
  apparent KD of MS2 coat protein: 57.9 nM
